The labels stand for the following.
B1: Tyrosine-protein kinase BTK (Homo sapiens), Q06187 (parent)
chain: MAAVILESIFLKRSQQKKKTSPLNFKKRLFLLTVHKLSYYEYDFERGRRGSKKGSIDVEKITCVETVVPEKNPPPERQIPRRGEESSEMEQISIIERFPYPFQVVYDEGPLYVFSPTEELRKRWIHQLKNVIRYNSDLVQKYHPCFWIDGQYLCCSQTAKNAMGCQILENRNGSLKPGSSHRKTKKPLPPTPEEDQILKKPLPPEPAAAPVSTSELKKVVALYDYMPMNANDLQLRKGDEYFILEESNLPWWRARDKNGQEGYIPSNYVTEAEDSIEMYEWYSKHMTRSQAEQLLKQEGKEGGFIVRDSSKAGKYTVSVFAKSTGDPQGVIRHYVVCSTPQSQYYLAEKHLFSTIPELINYHQHNSAGLISRLKYPVSQQNKNAPSTAGLGYGSWEIDPKDLTFLKELGTGQFGVVKYGKWRGQYDVAIKMIKEGSMSEDEFIEEAKVMMNLSHEKLVQLYGVCTKQRPIFIITEYMANGCLLNYLREMRHRFQTQQLLEMCKDVCEAMEYLESKQFLHRDLAARNCLVNDQGVVKVSDFGLSRYVLDDEYTSSVGSKFPVRWSPPEVLMYSKFSSKSDIWAFGVLMWEIYSLGKMPYERFTNSETAEHIAQGLRLYRPHLASEKVYTIMYSCWHEKADERPTFKILLSNILDVMDEES

The variants in the assay derive from B1. The conditions noted are these: with gtf2i_human GTF2I.
In the case of Y551F, the “effect of a mutation on the interaction” value was “decreasing interaction”. With R307K, the “effect of a mutation on the interaction” value is on record as “decreasing interaction”.

For Y223F, the “effect of a mutation on the interaction” value is “decreasing interaction”.

Source of the values: IntAct's records for PubMed 9012831.
